Starred links: 1 amine or outer side, 2 acyl side, 3 side chain; linkers in the order of their positions; H or OH if unused. Non-standard residues stand in square brackets, D forms with d. Groups on a side chain read outwards from the residue. Primed or numbered codes have the meaning given here. No end group written: not given here. *: point of attachment. C20 diacid = O=C(O)CCCCCCCCCCCCCCCCCCC(=O)*; γGlu = O=C(O)[C@H](CCC(=O)[*:2])N[*:1]; NMeY = CN[C@@H](Cc1ccc(O)cc1)C(=O)O; αMeF = C[C@](N)(Cc1ccccc1)C(=O)O; dIva = CC[C@@](C)(N)C(=O)O; Iva = CC[C@](C)(N)C(=O)O; PEG3′ = not defined here; Aib = CC(C)(N)C(=O)O
T1: human GIPR (human), P48546
T1 chain: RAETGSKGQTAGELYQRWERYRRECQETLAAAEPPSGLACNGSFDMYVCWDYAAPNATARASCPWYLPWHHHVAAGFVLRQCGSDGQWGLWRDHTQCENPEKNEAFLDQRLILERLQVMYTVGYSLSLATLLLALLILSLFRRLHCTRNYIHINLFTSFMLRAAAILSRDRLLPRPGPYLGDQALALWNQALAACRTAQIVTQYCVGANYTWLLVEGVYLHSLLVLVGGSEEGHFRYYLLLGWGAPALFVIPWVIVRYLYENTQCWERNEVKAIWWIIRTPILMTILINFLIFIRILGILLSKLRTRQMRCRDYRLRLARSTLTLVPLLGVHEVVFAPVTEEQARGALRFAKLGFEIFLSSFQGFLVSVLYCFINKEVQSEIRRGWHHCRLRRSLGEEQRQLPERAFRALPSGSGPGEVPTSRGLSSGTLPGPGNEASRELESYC

T2: human GLP-1R (human), P43220
T2 chain: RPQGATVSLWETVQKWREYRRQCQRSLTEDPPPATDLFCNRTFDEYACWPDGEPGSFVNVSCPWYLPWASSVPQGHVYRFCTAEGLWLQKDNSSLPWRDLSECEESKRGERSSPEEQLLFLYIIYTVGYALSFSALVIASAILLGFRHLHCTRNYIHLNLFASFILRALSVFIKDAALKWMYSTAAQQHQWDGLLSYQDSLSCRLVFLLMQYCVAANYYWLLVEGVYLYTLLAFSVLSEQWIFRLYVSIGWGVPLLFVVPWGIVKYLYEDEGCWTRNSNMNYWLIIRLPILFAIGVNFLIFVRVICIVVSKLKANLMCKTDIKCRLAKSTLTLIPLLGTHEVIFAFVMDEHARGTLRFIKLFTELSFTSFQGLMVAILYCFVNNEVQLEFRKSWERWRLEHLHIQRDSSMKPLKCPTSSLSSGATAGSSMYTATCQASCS

B1: Compound 415 (peptide)
peptide: YXEGTXISDYSIXXDRXAQXNFVNWXLAQR
modifications: N-methyl on Tyr1 (MeTyr); Aib at 2, 13, 17, 20; Iva at 6, 26; Lys(Oda-GGGGG-) at 14; C-terminal NH2
B2: Compound 435 (peptide)
peptide: YXEGTXISDYSIXXDRXAQXNFVNWXLAQRPSSGAPPPS
modifications: N-terminal acetyl (Ac-Tyr); Aib at 2, 13, 17, 20; Iva at 6, 26; Lys(Eda-GGGGG-) at 14; C-terminal NH2
B3: Compound 439 (peptide)
peptide: YXEGTXISDYSIXXDRXAQXNFVNWXLAQRPSSGAPPPS
modifications: N-methyl on Tyr1 (Me-Tyr); Aib at 2, 13, 17, 20; Iva at 6, 26; Lys(Oda-GGGGGG-) at 14; C-terminal NH2
B4: Compound 441 (peptide)
peptide: YXEGTXISDYSIXXDRXAQXNFVNWXLAQRPSSGAPPPS
modifications: not fully specified; N-methyl on Tyr1 (MeTyr); Aib at 2, 13, 17, 20; Iva at 6, 26; Lys(Oda-GGGGG-) at 14; C-terminal OH
B5: Compound 445 (peptide)
peptide: YXEGTXISDYSIXXDRXAQXNFVNWXLAQRPSSGAPPPS
modifications: N-methyl on Tyr1 (Me-Tyr); Aib at 2, 13, 17, 20; Iva at 6, 26; Lys(Heda-GGGGG-) at 14; C-terminal NH2
B6: Compound 457 (peptide)
peptide: YXEGTXISDYSIXXDRXAQXNFVNWXLAQRPSSGAPPPS
modifications: N-methyl on Tyr1 (Me-Tyr); Aib at 2, 13, 17, 20; Iva at 6, 26; Lys(Heda-GGGGGG-) at 14; C-terminal NH2
B7: Compound 459 (peptide)
peptide: YXEGTXISDYSIXXDRXAQXNFVNWXLAQRPSSGAPPPS
modifications: N-methyl on Tyr1 (Me-Tyr); Aib at 2, 13, 17, 20; Iva at 6, 26; Lys(Hda-GGGGG-) at 14; C-terminal NH2
B8: Compound 465 (peptide)
peptide: YXEGTXISDYSIXXDRXAQXNFVNWXLAQRPSSGAPPPS
modifications: N-methyl on Tyr1 (Me-Tyr); Aib at 2, 13, 17, 20; Iva at 6, 26; Lys(Hepda-GGGGG-) at 14; C-terminal NH2
B9: Compound 466 (peptide)
peptide: YXEGTXISDYSIXXDRXAQXNFVNWXLAQRPSSGAPPPS
modifications: N-methyl on Tyr1 (Me-Tyr); Aib at 2, 13, 17, 20; Iva at 6, 26; Lys(Hepda-GGGGGG-) at 14; C-terminal NH2
B10: Compound 473 (peptide)
peptide: YXEGTXISDYSIXXDRXAQXNFVNWXLAQRPSSGAPPPSR
modifications: N-methyl on Tyr1 (Me-Tyr); Aib at 2, 13, 17, 20; Iva at 6, 26; Lys(Eda-GGGGG-) at 14; C-terminal NH2
B11: Compound 475 (peptide)
peptide: YXEGTXISDYSIXXDRXHQXNFVNWXLAQRPSSGAPPPS
modifications: N-methyl on Tyr1 (Me-Tyr); Aib at 2, 13, 17, 20; Iva at 6, 26; Lys(Eda-GGGGG-) at 14; C-terminal NH2

Key:
[1] = biological target: T1, human GIPR (human), P48546
[2] = biological target: T2, human GLP-1R (human), P43220
[3] = biological target: T1, human GIPR (human), P48546; assay: [125I]GIP displacement, hGIPR VLP
human GLP-1R = human GLP-1R (human, UniProt P43220); assay: cell-based or functional assay

| Binder | Agonist activity (EC50, M) [1] [M] | Agonist activity (EC50, M) [2] [M] | IC50 [3] [nM] | Agonist activity (EC50, M) (human GLP-1R) [M] |
| --- | --- | --- | --- | --- |
| Y[Aib]EGTFISDYSIALDRK([PEG3′-PEG3′-γGlu-C20 diacid])HQQDFVNWLLAQRPSSGAPPPS (not fully specified (C-terminus); ends and bridges not checked) [Compound 237] | 1.6e-10 | > 1e-06 | 110 |  |
| Y[Aib]EGTFISDYSK([PEG3′-PEG3′-γGlu-C20 diacid])ALDRIHQQDFVNWLLAQRPSSGAPPPS (not fully specified (C-terminus); ends and bridges not checked) [Compound 238] | 8.3e-11 | > 1e-06 | 43 |  |
| Y[Aib]EGTFISDYSIALDRK([PEG(2)-Pal])HQ[Aib]NFVNW[Iva]LAQRPSSGAPPPS (not fully specified (C-terminus); ends and bridges not checked) [Compound 240] | 3e-12 | 5.8e-09 | 2.4 |  |
| [NMeY][Aib]EGTFISDYSIALDRIAQ[Aib]NFVNW[Iva]LAQRPSSGAPPPSR (not fully specified (C-terminus); ends and bridges not checked) [Compound 68] | 1.7e-12 | 3.5e-07 | 2.4 |  |
| [NMeY][Aib]EGTFISDYSIALDRIAQQS[αMeF]VNWLLAQRPSSGAPPPSR (not fully specified (C-terminus); ends and bridges not checked) [Compound 71] | 2.5e-12 | > 1e-06 | 2.1 |  |
| [NMeY][Aib]EGTFISDYSIALDRIAQ[Aib]N[αMeF]VNWLLAQRPSSGAPPPSR (not fully specified (C-terminus); ends and bridges not checked) [Compound 72] | 2.6e-12 | 2.3e-07 | 2.7 |  |
| [NMeY][Aib]EGTFISDYSI[dIva]LDR[Aib]AQQDFVNWLLAQRPSSGAPPPSR (ends and bridges not checked) [Compound 79] | 1.1e-12 | > 1e-06 | 1.2 |  |
| [NMeY][Aib]EGTFISDYSI[dIva]LDRIAQ[Aib]NFVNW[Iva]LAQRPSSGAPPPSR (ends and bridges not checked) [Compound 92] | 1.3e-12 | > 1e-06 | 2.3 |  |
| B1 |  |  |  | > 1e-06 |
| B2 |  |  |  | > 1e-06 |
| B3 |  |  |  | > 1e-06 |
| B4 |  |  |  | > 1e-06 |
| B5 |  |  |  | > 1e-06 |
| B6 |  |  |  | > 1e-06 |
| B7 |  |  |  | > 1e-06 |
| B8 |  |  |  | > 1e-06 |
| B9 |  |  |  | > 1e-06 |
| B10 |  |  |  | > 1e-06 |
| B11 |  |  |  | > 1e-06 |

— patent US20180298070A1, “PEPTIDE COMPOUND” (Takeda Pharmaceutical Company Limited, published 2018)
